Source: patent publication US20100092467A1 (US Dept. of Health and Human Services, published 2010)
Ends that are not written are not given here. * marks the point of attachment. Biotin = O=C1N[C@H]2[C@H](CS[C@H]2CCCCC(=O)*)N1

B1: peptide 37297 (IGWKNFTAYR) (peptide)
peptide: IGWKNFTAYR
B2: peptide C6d (biotin-IGWKDFTAYR) (peptide)
peptide: Biotin-IGWKDFTAYR
B3: peptide 37299 (peptide)
peptide: IGWKDFAAYR
B4: peptide 37555 (IGWKDFTAAR) (peptide)
peptide: IGWKDFTAAR
B5: peptide 37413 (peptide)
peptide: IGWADFTAYR
B6: peptide C6b (HIGWKDFTAYRWRLS) (peptide)
peptide: HIGWKDFTAYRWRLS
B7: peptide 37415 (IGWKEFTAYR) (peptide)
peptide: IGWKEFTAYR
B8: peptide 37417 (IGYKDFTAYR) (peptide)
peptide: IGYKDFTAYR
B9: peptide 37300 (Ac-WKDFTAYR) (peptide)
peptide: Ac-WKDFTAYR
B10: peptide 37416 (AGWKDFTAYR) (peptide)
peptide: AGWKDFTAYR
B11: peptide 37298 (IGWKDYTAYR) (peptide)
peptide: IGWKDYTAYR
B12: peptide 37414 (IGWHDFTAYR) (peptide)
peptide: IGWHDFTAYR

target: CD47, human, endogenous on cells (human, UniProt Q08722 19-323); assay: cell-based or functional assay

NO-driven HASMC adhesion to collagen [nM] | cGMP signaling IC50** [nM] | Molecule
> 0.4 |  | E3CaG1, recombinant C-terminal regions of TSP1 (from UniProt P07996 646-1170) (ligand)
 | > 10000 | B1
 | ~100 | B2
 | > 10000 | B3
 | ~10000 | B4
 | > 10000 | B5
 | ~100 | B6
 | 1000 | B7
 | ~100 | B8
 | ~1000 | B9
 | ~1000 | B10
 | ~100 | B11
 | > 10000 | B12

target: CD36, murine, endogenous on cells (mouse) (UniProt Q08857); assay: cell-based or functional assay
Sequence (Q08857 whole entry): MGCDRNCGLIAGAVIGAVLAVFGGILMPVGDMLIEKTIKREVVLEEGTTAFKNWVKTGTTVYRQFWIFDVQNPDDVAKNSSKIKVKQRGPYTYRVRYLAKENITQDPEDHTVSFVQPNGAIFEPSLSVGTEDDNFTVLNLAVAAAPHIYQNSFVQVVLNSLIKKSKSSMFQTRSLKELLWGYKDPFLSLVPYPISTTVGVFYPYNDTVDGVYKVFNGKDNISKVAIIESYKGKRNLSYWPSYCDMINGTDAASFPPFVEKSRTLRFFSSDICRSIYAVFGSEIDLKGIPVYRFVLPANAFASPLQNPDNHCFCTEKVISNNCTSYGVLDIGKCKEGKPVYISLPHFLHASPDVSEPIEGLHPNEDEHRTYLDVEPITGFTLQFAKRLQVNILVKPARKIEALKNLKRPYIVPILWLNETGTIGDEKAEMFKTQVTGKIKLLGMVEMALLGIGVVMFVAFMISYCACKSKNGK

NO-stimulated adhesion of MASMC on type I collagen [nM] | Molecule
22 | Thrombospondin-1 (TSP1), prepared from human platelets (from UniProt P07996 19-1170) (ligand)
